The results in this text go back to US20210268105A1 (HEXAMER THERAPEUTICS, published 2021).

The data set concerns the molecule itself. As to the kind of experiment: Blue native PAGE of the peptide dissolved in 1xPBS; self-association into a hexamer. The method, then:
The peptide (SEQ ID NO: 15) was synthesized by SPPS and lyophilized for storage. The peptide was dissolved in 1×PBS and then loaded onto a blue native PAGE gel and size fractionated by electrophoresis through a 4-16% acrylamide gradient gel for 90 min at 150 V (constant). The gel was fixed in methanol:acetic acid:water and then rinsed in the same solution to destain. Lane 1 is BSA as a reference protein, and Lane 2 is the self-assembled hexamer. MW standards (which are not shown) are on the right. BSA is 66 kDa and the hexamer has an expected size of 20.7 kDa.
Experiments were performed to confirm that a hexamer forms following hydration of the monomer, elucidate the solubility of epitope coupled hexamers, determine the maximum density of epitope coupling, and confirm that a hexameric structure is maintained following coupling of the epitope. A representative peptide, SEQ ID NO: 15, was synthesized using the protocols previously described. A methionine and aspartic acid residue were placed on the N-terminus, and the methionine residue was protected by acetylation to form Acetyl-MD-(SEQ ID NO: 15). Following SPPS, the peptide was lyophilized for storage. To show self-assembly, the peptide was dissolved in 1×PBS buffer, incubated at room temperature for 5 min, and loaded onto a Blue NativePAGE Novex Bis-Tris Gel using the system purchased from Life Technologies. […]

Where no end group is shown, it is not given here.

B1: Acetyl-MD-(SEQ ID NO: 15) (peptide)
peptide: Ac-MDLRSIGKDLRSIGRDLRSIGKDLRSIGRD
notes: After it is dissolved in 1xPBS, six copies self-assemble into a hexamer (expected 20.7 kDa); also called self-assembled peptide
As to B1, the binding result is given as “binds”.
